Data reported in patent US20150105326A1 (SEOUL NATIONAL UNIVERSITY SNU R AND D FOUNDATION, published 2015).

How the values were obtained:
[1] = biological target: T1, DDB1-CUL4-associated factor 1 adaptor (DCAF1) (UniProt Q9Y4B6 1-1507); assay: co-immunoprecipitation, HEK-293 cells with 20 µM MG132 (FIG. 23 legend)
T1 construct: Endogenous or overexpressed in HEK-293 cells, in cell extracts; also called VprBP

[2] = biological target: T2, Enhancer of Zeste Homolog 2 lysine methyltransferase (EZH2) wild type (UniProt Q15910 1-746); assay: co-immunoprecipitation of endogenous proteins, HEK-293 cells with MG132 (FIG. 3)
T2 construct: Endogenous (HEK-293) or overexpressed, in cell extracts; also called EZH2 WT

[3] = biological target: T3, EZH2 H689A mutant (catalytically inactive mutant, MT) (UniProt Q15910 1-746); assay: binding of EZH2 WT or MT with RORα in cell extracts (FIG. 15)
T3 construct: also called EZH2 MT; H689A mutant (MT) of EZH2
T3 sequence (Q15910 whole entry H689A): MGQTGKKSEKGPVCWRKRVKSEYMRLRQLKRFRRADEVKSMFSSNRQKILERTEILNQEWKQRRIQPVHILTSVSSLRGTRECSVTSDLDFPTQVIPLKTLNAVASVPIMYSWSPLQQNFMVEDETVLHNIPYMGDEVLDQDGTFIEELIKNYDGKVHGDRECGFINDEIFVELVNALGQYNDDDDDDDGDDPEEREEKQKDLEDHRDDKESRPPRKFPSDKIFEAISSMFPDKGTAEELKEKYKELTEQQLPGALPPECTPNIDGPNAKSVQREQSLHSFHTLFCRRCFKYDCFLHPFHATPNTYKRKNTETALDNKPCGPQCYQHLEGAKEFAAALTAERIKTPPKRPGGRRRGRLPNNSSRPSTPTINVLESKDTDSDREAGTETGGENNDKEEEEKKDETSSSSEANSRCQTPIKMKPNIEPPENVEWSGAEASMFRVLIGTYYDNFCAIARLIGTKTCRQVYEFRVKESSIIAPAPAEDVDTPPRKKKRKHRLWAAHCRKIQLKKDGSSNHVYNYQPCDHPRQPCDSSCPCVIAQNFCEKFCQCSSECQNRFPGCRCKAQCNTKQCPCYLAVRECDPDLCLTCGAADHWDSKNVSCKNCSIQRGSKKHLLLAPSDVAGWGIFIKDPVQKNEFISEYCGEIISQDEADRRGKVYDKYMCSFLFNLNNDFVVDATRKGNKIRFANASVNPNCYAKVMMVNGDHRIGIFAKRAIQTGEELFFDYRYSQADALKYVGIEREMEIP

T2 sequence (Q15910 whole entry): as the sequence (Q15910 whole entry H689A) above, with A689H counted along it
T1 sequence (Q9Y4B6 whole entry): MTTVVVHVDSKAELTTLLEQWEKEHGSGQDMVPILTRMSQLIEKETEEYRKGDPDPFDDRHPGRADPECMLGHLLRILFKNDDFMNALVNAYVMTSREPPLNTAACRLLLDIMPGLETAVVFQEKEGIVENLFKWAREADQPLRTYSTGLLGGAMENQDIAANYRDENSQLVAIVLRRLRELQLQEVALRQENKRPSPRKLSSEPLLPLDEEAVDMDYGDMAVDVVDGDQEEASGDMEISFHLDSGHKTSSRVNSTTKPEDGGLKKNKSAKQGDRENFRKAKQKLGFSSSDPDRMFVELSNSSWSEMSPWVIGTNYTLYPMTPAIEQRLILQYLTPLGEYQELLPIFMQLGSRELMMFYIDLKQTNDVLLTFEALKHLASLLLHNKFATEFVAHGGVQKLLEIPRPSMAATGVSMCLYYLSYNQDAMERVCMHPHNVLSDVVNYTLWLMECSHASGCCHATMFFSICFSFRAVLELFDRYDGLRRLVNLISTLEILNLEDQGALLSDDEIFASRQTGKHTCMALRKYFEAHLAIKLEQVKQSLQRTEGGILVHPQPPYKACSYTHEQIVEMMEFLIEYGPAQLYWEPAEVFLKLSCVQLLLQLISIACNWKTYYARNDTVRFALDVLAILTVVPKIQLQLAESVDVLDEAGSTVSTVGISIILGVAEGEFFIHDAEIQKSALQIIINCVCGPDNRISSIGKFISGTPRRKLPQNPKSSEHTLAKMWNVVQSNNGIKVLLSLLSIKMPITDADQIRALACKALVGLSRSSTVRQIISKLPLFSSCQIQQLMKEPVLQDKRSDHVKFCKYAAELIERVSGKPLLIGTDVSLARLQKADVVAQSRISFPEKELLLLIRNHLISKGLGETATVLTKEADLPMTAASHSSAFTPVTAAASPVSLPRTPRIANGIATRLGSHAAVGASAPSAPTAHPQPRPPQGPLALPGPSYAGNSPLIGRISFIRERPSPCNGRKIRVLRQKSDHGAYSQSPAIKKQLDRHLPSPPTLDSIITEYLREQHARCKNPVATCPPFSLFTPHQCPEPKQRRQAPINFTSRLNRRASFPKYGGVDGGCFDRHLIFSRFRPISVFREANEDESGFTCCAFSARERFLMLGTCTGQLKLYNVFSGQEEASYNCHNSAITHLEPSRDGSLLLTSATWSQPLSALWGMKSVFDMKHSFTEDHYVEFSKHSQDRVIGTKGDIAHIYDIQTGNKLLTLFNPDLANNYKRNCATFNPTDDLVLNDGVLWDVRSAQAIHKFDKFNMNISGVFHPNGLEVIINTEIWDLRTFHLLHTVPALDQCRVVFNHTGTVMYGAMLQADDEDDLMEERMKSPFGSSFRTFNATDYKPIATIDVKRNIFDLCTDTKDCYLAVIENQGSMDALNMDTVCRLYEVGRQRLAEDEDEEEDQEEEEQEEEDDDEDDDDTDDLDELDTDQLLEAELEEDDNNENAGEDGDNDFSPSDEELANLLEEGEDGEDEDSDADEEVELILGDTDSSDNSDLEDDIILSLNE

binding result [1]: binds | binding result [2]: binds | binding result [3]: binds
B1: retinoic acid-related orphan nuclear receptor α (RORα) wild type (receptor, UniProt P35398-2 1-523, looked up)
chain: MESAPAAPDPAASEPGSSGADAAAGSRETPLNQESARKSEPPAPVRRQSYSSTSRGISVTKKTHTSQIEIIPCKICGDKSSGIHYGVITCEGCKGFFRRSQQSNATYSCPRQKNCLIDRTSRNRCQHCRLQKCLAVGMSRDAVKFGRMSKKQRDSLYAEVQKHRMQQQQRDHQQQPGEAEPLTPTYNISANGLTELHDDLSNYIDGHTPEGSKADSAVSSFYLDIQPSPDQSGLDINGIKPEPICDYTPASGFFPYCSFTNGETSPTVSMAELEHLAQNISKSHLETCQYLREELQQITWQTFLQEEIENYQNKQREVMWQLCAIKITEAIQYVVEFAKRIDGFMELCQNDQIVLLKAGSLEVVFIRMCRAFDSQNNTVYFDGKYASPDVFKSLGCEDFISFVFEFGKSLCSMHLTEDEIALFSAFVLMSADRSWLQEKVKIEKLQQKIQLALQHVLQKNHREDGILTKLICKVSTLRALCGRHTEKLMAFKAIYPDIVRLHFPPLYKELFTSEFEPAMQIDG
modifications: K38 mono-methylated by EZH2 in cells (the fraction methylated is not stated)
notes: Endogenous protein of HEK-293 cells in some co-immunoprecipitations, 3x-Flag-tagged (3x-Flag-CMV-RORα) in others; the tag is not written as a piece; also called RORα WT; Flag-RORα
